Assay results published in patent US20250376535A1 (BEIJING STARMAB BIOMED TECHNOLOGY, published 2025).

Experiments:
EGFR Fc [1] = target: T1, EGFR Fc (human, UniProt P00533 25-645); assay: blocking ELISA, EGFR-hFc + VHH at 0.064 nM on coated EGF-mFc
T1 construct: also called EGFR-hFc; recombinant human EGFR-Fc
Procedure: (§1) After incubation at 4° C. overnight, the plate was washed four times of PBST and blocked with 200 μl per well of 2% BSA for one hour at room temperature. […] The plate was washed twice with PBST, and the pre-mixed samples were added to the 96-well plate shaking at 60 rpm for one hour at room temperature. After four washes of PBST, the plate was incubated with detecting antibody anti-his-HRP (1:4000 dilution) 100 μl per well for one hour with shaking at 60 rpm. The plate was washed with four times of PBST and added 100 μl per well of substrate TMB followed by 50 μl of stop solution.

EGFR Fc [2] = target: T1, EGFR Fc; assay: ELISA, EGFR Fc coated, VHH at 0.016 nM
Procedure: (§2) After four rounds of washing with PBST, the plate was incubated with detecting antibody anti-his-HRP (1:4000 dilution) 100 μl per well for one hour with shaking at 60 rpm. The plate was developed with 100 μL of TMB per well in the dark and then stopped by 50 μL of stop solution per well. […] Data was analyzed using GraphPad Prisma 9.1.

EGFR Fc [3] = target: T1, EGFR Fc; assay: ELISA, EGFR Fc coated, VHH at 10 nM
Procedure: as §2

EGFR Fc [4] = target: T1, EGFR Fc; assay: blocking ELISA, EGFR-hFc + VHH at 0 nM on coated EGF-mFc
Procedure: as §1

EGFR Fc [5] = target: T1, EGFR Fc; assay: ELISA, EGFR Fc coated, VHH at 50 nM
Procedure: as §2

EGFR Fc [6] = target: T1, EGFR Fc; assay: blocking ELISA, EGFR-hFc + VHH at 40 nM on coated EGF-mFc
Procedure: as §1

EGFR Fc [7] = target: T1, EGFR Fc; assay: ELISA, EGFR Fc coated, VHH at 0.0032 nM
Procedure: as §2

EGFR Fc [8] = target: T1, EGFR Fc; assay: ELISA, EGFR Fc coated, VHH at 2 nM
Procedure: as §2

EGFR Fc [9] = target: T1, EGFR Fc; assay: blocking ELISA, EGFR-hFc + VHH at 200 nM on coated EGF-mFc
Procedure: as §1

EGFR Fc [10] = target: T1, EGFR Fc; assay: blocking ELISA, EGFR-hFc + VHH at 0.32 nM on coated EGF-mFc
Procedure: as §1

EGFR Fc [11] = target: T1, EGFR Fc; assay: ELISA, EGFR Fc coated, VHH at 0.08 nM
Procedure: as §2

[12] = target: T2, EGFR (recombinant human, BLI antigen) (human, UniProt P00533 25-645); assay: BLI (Octet) as in Example 1
T2 construct: also called rh-EGFR; human EGFR

EGFR Fc [13] = target: T1, EGFR Fc; assay: ELISA, EGFR Fc coated
Procedure: as §2

[14] = target: T2, EGFR (recombinant human, BLI antigen); assay: BLI (Octet) as in Example 1; printed under the head Kon(1/Ms), read as koff
EGFR Fc [15] = target: T1, EGFR Fc; assay: blocking ELISA, EGFR-hFc + VHH at 1000 nM on coated EGF-mFc
Procedure: as §1

[16] = target: T2, EGFR (recombinant human, BLI antigen); assay: BLI (Octet) as in Example 1; printed under the head Kdis(1/s), read as kon
EGFR Fc [17] = target: T1, EGFR Fc; assay: blocking ELISA, EGFR-hFc + VHH at 8 nM on coated EGF-mFc
Procedure: as §1

EGFR Fc [18] = target: T1, EGFR Fc; assay: ELISA, EGFR Fc coated, VHH at 500 nM
Procedure: as §2

EGFR Fc [19] = target: T1, EGFR Fc; assay: ELISA, EGFR Fc coated, VHH at 0.4 nM
Procedure: as §2

EGFR Fc [20] = target: T1, EGFR Fc; assay: blocking ELISA, EGFR-hFc + VHH at 1.6 nM on coated EGF-mFc
Procedure: as §1

4-1BB Fc [21] = target: T3, 4-1BB Fc (human, UniProt Q07011 24-183); assay: ELISA, 4-1BB Fc coated, VHH at 5 nM
T3 construct: also called rh-41BB; 41BB-hFc
Procedure: as §2

4-1BB Fc [22] = target: T3, 4-1BB Fc; assay: ELISA, 4-1BB Fc coated, VHH at 0.0005 nM
Procedure: as §2

4-1BB Fc [23] = target: T3, 4-1BB Fc; assay: ELISA, 4-1BB Fc coated, VHH at 500 nM
Procedure: as §2

4-1BB Fc [24] = target: T3, 4-1BB Fc; assay: ELISA, 4-1BB Fc coated, VHH at 50 nM
Procedure: as §2

4-1BB Fc [25] = target: T3, 4-1BB Fc; assay: ELISA, 4-1BB Fc coated, VHH at 0.005 nM
Procedure: as §2

4-1BB Fc [26] = target: T3, 4-1BB Fc; assay: ELISA, 4-1BB Fc coated, VHH at 0.00005 nM
Procedure: as §2

Human 41BB antigen (BLI) = target: T4, Human 41BB antigen (BLI) (human, UniProt Q07011 24-183); assay: BLI, VHH-His on anti-His tips, human 41BB in solution;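 further: association tracked for 200 s, after which dissociation was followed in 1×PBS free of 41BB protein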
T4 construct: also called 41BB protein
Procedure: Tips were loaded using 20 μg/ml of anti-41BB VHH. Loading proceeded for 300 sec resulting in capture levels of between 1.8 and 2 nm. […] Association was initiated and monitored for 200 sec, after which tips were transferred to 1×PBS buffer without 41BB protein, in order to monitor dissociation.

4-1BB Fc [27] = target: T3, 4-1BB Fc; assay: ELISA, 4-1BB Fc coated, VHH at 0.5 nM
Procedure: as §2

4-1BB Fc [28] = target: T3, 4-1BB Fc; assay: ELISA, 4-1BB Fc coated, VHH at 0.05 nM
Procedure: as §2

murine serum albumin = target: T5, murine serum albumin (murine, UniProt P07724 25-608); assay: BLI (Gator), His-tagged VHH on anti-His sensor, murine serum albumin 100 nM in solution
T5 construct: As antigen 'MSA' means murine serum albumin; the VHHs also carry the label MSA; also called MSA
Procedure: (§3) Kinetic binding analysis of MSA VHHs were performed with Gator Prime system equipped with analyze software. […] The experiments were done at 30° C. Prior to analysis, sensors were socked in Q buffer for 600 sec with shaking at 1000 rpm, and then 2 μM of HIS tagged MSA VHHs were loaded to Anti-His sensors with shaking at 400 rpm for 120 sec. Loaded sensors were transferred into Q buffer for 60 sec. Association of HSA or MSA at 100 nM was initiated and monitored for 120-180 sec with shaking at 1000 rpm, and finally dissociation in Q buffer for 120-180 sec with 1000 rpm shaking. Software V2.0 (Gator Bio) was used for data analysis. The on-rate (Kₒₙ) and off-rate (Kd) were determined by fitting of the association and dissociation phases of each sample. The mathematical model used assumes a 1:1 stoichiometry, fitting only one analyte in solution binding to one binding site on the surface. The equilibrium dissociation constant (KD), a measure for affinity, was then calculated as the ratio of Kd and Kₒₙ.

human serum albumin = target: T6, human serum albumin (human, UniProt P02768 25-609); assay: BLI (Gator), His-tagged VHH on anti-His sensor, HSA 100 nM in solution
T6 construct: also called HSA
Procedure: as §3

T3 sequence (Q07011 24-183): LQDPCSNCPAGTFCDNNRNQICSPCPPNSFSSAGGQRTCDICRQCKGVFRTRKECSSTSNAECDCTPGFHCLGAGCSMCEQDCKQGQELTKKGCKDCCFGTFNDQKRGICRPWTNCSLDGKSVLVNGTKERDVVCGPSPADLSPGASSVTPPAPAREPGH
T4 sequence (Q07011 24-183 limits assumed): as the sequence (Q07011 24-183) above

Row | OD450 (EGFR Fc [1]) | OD450 (EGFR Fc [2]) | OD450 (EGFR Fc [3]) | OD450 (EGFR Fc [4]) | OD450 (EGFR Fc [5]) | OD450 (EGFR Fc [6]) | OD450 (EGFR Fc [7]) | OD450 (EGFR Fc [8]) | OD450 (EGFR Fc [9]) | OD450 (EGFR Fc [10]) | OD450 (EGFR Fc [11]) | Kd [12] [pM] | EC50 (EGFR Fc [13]) [pM] | koff [14] [s⁻¹] | OD450 (EGFR Fc [15]) | kon [16] [M⁻¹ s⁻¹] | OD450 (EGFR Fc [17]) | OD450 (EGFR Fc [18]) | OD450 (EGFR Fc [19]) | OD450 (EGFR Fc [20]) | Binder | further results
1 | 1.06 | 0.144 | 0.715 | 1.14 | 0.786 | 0.414 | 0.121 | 0.626 | 0.147 | 1.03 | 0.25 | 1130 | 769 | 0.000406 | 0.151 | 358000 | 0.633 | 0.963 | 0.461 | 0.922 | pgEG-SX40 (VHH, not shown: small tags and cut ends) VHH: QVQLVESGGGLVQAGGSLRLSCTGSGIRFSFYTLGWYRQAPGKQRELVAEIYSSDNAKYEDSVKGRFAISRDNAKNSVSLQMNSLKPEDTAVYYCNVRATDYWGPGTQVTVSS | 
2 | 0.956 | 0.139 | 1 | 1.04 | 1.15 | 0.606 | 0.082 | 1.83 | 0.668 | 1.07 | 0.496 | 798 | 120 | 0.000399 | 0.646 | 500000 | 0.757 | 1.37 | 1.16 | 0.928 | pgEG-SX6 (VHH, not shown: small tags and cut ends) VHH: QVQLVESGGGTVQAGGSLRLSCVASGMREDIFDMGWYRQAPGLQRELVATITSGGSTDYADSVKGRFTISRDNTENTLNLQMNMLKPEDTAVYYCNALYFPPSGGRSSEFWGQGTLVTVSS | 
3 | 0.983 | 0.871 | 1.94 | 1.07 | 1.78 | 0.801 | 0.304 | 1.88 | 0.903 | 0.955 | 1.43 | 464 | 7.2 | 0.00028 | 0.96 | 602000 | 0.736 | 2.16 | 1.72 | 0.864 | pgEG-SX22 (VHH, not shown: small tags and cut ends) VHH: QVQLVESGGGLVQAGGSLRVSCAVSGGALSAYAMAWFRQAPGKEREFVAGLNWGGDETYYADSAKGRFTISKDNAKNTVSLQMNSLEPEDTAVYYCGGRPGPLLSRATGYKYWGQGTQVTVSS | 
4 | 1.14 | 1.33 | 2.54 | 1.11 | 2.46 | 0.433 | 0.648 | 2.79 | 0.158 | 1.08 | 2.37 | 1870 | 22 | 0.000715 | 0.15 | 381000 | 0.649 | 2.61 | 2.67 | 0.919 | pgEG-SX57 (VHH, not shown: small tags and cut ends) VHH: QVQLVESGGGLVQAGGSLRLSCAGARSIFSIKPMTWYRQAPGKERELVAWFTSGDSPNYADSVKGRFTISRDSAKNTVYLQMNNLKPEDTAVYYCNAVPPLGRWGQGTLVTVSS | 
5 |  |  |  |  |  |  |  |  |  |  |  |  |  |  |  |  |  |  |  |  | 4-1BB-56 (VHH, not shown: small tags and cut ends) VHH: QVQLVESGGGLVQTGGSLRLSCAASGRISTIDTMFWYRQTPGKERDWVAFIPKDGLPTYVDSVKGRFTVSRDNARNTVYLQMNGLKPEDTAVYYCAVDVQEDRMRTYWGQGTQVTVSS | OD450 (4-1BB Fc [21]): 2.89; OD450 (4-1BB Fc [22]): 0.181; OD450 (4-1BB Fc [23]): 2.7; OD450 (4-1BB Fc [24]): 3.08; OD450 (4-1BB Fc [25]): 0.203; OD450 (4-1BB Fc [26]): 0.129; Kd (Human 41BB antigen (BLI)): 781 pM; koff (Human 41BB antigen (BLI)): 0.000552 s⁻¹; kon (Human 41BB antigen (BLI)): 707000 M⁻¹ s⁻¹; OD450 (4-1BB Fc [27]): 1.69; OD450 (4-1BB Fc [28]): 0.397
6 | 0.979 | 0.134 | 0.994 | 1.06 | 1.21 | 0.482 | 0.086 | 0.843 | 0.382 | 0.806 | 0.373 | 602 | 382 | 0.000275 | 0.336 | 457000 | 0.562 | 1.47 | 0.762 | 0.723 | pgEG-SX3 (VHH, not shown: small tags and cut ends) VHH: QVQLVESGGGLVQAGGSLRLSCVVYGSIFASTTMGWYRQAPGKQRELVATVYQSGTSVYADSVKGRFTASRDNAKKTVYLQMNSLKPEDTAVYYCHPRATDYWGRGTQVTVSS | 
7 | 1.15 | 0.147 | 2.35 | 1.2 | 2.33 | 1.11 | 0.119 | 2.23 | 1.2 | 1.16 | 0.34 | 10800 | 426 |  | 1.22 |  | 1.07 | 2.52 | 1.2 | 1.18 | pgEG5 (VHH, not shown: small tags and cut ends) VHH: QVQLVESGGGLVQPGGSLRLSCTASHNIFSDNAMAWSRQAPGAQRELVARIATGGNTYYPDSVKGRFTISRDNAKNTVYLQMNNLTPDDTAVYYCYAERWTGLEYSRTYWGQGTQVTVSS | koff [12]: 0.00134 s⁻¹; kon [12]: 124000 M⁻¹ s⁻¹
8 |  |  |  |  |  |  |  |  |  |  |  |  |  |  |  |  |  |  |  |  | Humanized MSA4-1 (VHH, Humanization of MSA4 based on human germline IGHV3-23*04; also called hMSA4-1; not shown: His tag (BLI used HIS tagged MSA VHHs)) VHH: EVQLVESGGGLVQPGGSLRLSCAASGRTDSAYRMGWFRQAPGKEREFVSAINWSDGRTVYLDSVKGRFTISRDNAKNTLYLQMNSLRAEDTAVYYCAADPDSRLYYTVPQNYDYWGQGTQVTVSS | Kd (murine serum albumin): 5580 pM; koff (murine serum albumin): 0.000678 s⁻¹; kon (murine serum albumin): 121000 M⁻¹ s⁻¹; Kd (human serum albumin): 5380 pM; koff (human serum albumin): 0.000545 s⁻¹; kon (human serum albumin): 101000 M⁻¹ s⁻¹
